# B1: BK channel β1 subunit: N80Q/N142Q (protein)
# parent chain: MVKKLVMAQKRGETRALCLGVTMVVCAVITYYILVTTVLPLYQKSVWTQESKCHLIETNIRDQEELKGKKVPQYPCLWVNVSAAGRWAVLYHTEDTRDQNQQCSYIPGSVDNYQTARADVEKVRAKFQEQQVFYCFSAPRGNETSVLFQRLYGPQALLFSLFWPTFLLTGGLLIIAMVKSNQYLSILAAQK
# B2: BK channel β1 subunit: PNGase F (protein)
# parent chain: MVKKLVMAQKRGETRALCLGVTMVVCAVITYYILVTTVLPLYQKSVWTQESKCHLIETNIRDQEELKGKKVPQYPCLWVNVSAAGRWAVLYHTEDTRDQNQQCSYIPGSVDNYQTARADVEKVRAKFQEQQVFYCFSAPRGNETSVLFQRLYGPQALLFSLFWPTFLLTGGLLIIAMVKSNQYLSILAAQK
# B3: BK channel β1 subunit: N80A/N142A (protein)
# parent chain: MVKKLVMAQKRGETRALCLGVTMVVCAVITYYILVTTVLPLYQKSVWTQESKCHLIETNIRDQEELKGKKVPQYPCLWVNVSAAGRWAVLYHTEDTRDQNQQCSYIPGSVDNYQTARADVEKVRAKFQEQQVFYCFSAPRGNETSVLFQRLYGPQALLFSLFWPTFLLTGGLLIIAMVKSNQYLSILAAQK
# B4: BK channel β1 subunit: tunicamycin (protein)
# parent chain: MVKKLVMAQKRGETRALCLGVTMVVCAVITYYILVTTVLPLYQKSVWTQESKCHLIETNIRDQEELKGKKVPQYPCLWVNVSAAGRWAVLYHTEDTRDQNQQCSYIPGSVDNYQTARADVEKVRAKFQEQQVFYCFSAPRGNETSVLFQRLYGPQALLFSLFWPTFLLTGGLLIIAMVKSNQYLSILAAQK
# How the values were obtained:
# [1] = whole-cell patch clamp, 400 nM martentoxin, 300 nM Ca2+; settings: glycan lost; control: wild-type BK (α+β1)
# [2] = whole-cell G-V curve, Boltzmann fit, 300 nM Ca2+; settings: glycan lost; control: wild-type BK (α+β1)
# [3] = whole-cell patch clamp, current density; settings: glycan lost; control: wild-type BK (α+β1)
# [4] = activation time constant, single exponential fit, +50 to +120 mV; settings: glycan lost; control: wild-type BK (α+β1)
# [5] = western blot, relative β1 level; settings: glycan lost; control: wild-type β1, untreated
# [6] = whole-cell patch clamp, 100 nM IbTx, 300 nM Ca2+; settings: glycan lost; control: wild-type BK (α+β1)
# [7] = whole-cell patch clamp, 400 nM martentoxin, no cytoplasmic Ca2+; settings: glycan lost; control: wild-type BK (α+β1)
# [8] = whole-cell patch clamp, 100 nM IbTX, 300 nM Ca2+; settings: glycan lost; control: untreated wild-type BK (α+β1)
# [9] = whole-cell patch clamp, 400 nM IbTX, 300 nM Ca2+; settings: glycan lost; control: untreated wild-type BK (α+β1)
# [10] = whole-cell patch clamp, 400 nM MarTX, no cytoplasmic Ca2+; settings: glycan lost; control: untreated wild-type BK (α+β1)
# [11] = whole-cell patch clamp, 100 nM MarTX, no cytoplasmic Ca2+; settings: glycan lost; control: untreated wild-type BK (α+β1)
Protein,"other: toxin enhancement of channel current, other: fractional current remaining (If) [1]","other: voltage dependence of activation, other: V1/2 [2]",other: channel current [3],other: channel activation kinetics [4],expression_or_secretion [5],"other: toxin inhibition of channel current, other: fractional current remaining (If) [6]","other: toxin inhibition of channel current, other: fractional current remaining (If) [7]","other: toxin inhibition of channel current, other: fractional current remaining (If) [8]","other: toxin inhibition of channel current, other: fractional current remaining (If) [9]","other: toxin inhibition of channel current, other: fractional current remaining (If) [10]","other: toxin inhibition of channel current, other: fractional current remaining (If) [11]"
B1,"abolishes, 1.04 ± 0.02 vs 1.13 ± 0.01","no change, 65.35 ± 1.48 vs 66.52 ± 1.47, slope 22.89 ± 1.24 vs 22.55 ± 1.21",no change,decreases,no change,"increases, 0.46 ± 0.04 vs 0.92 ± 0.01","increases, 0.72 ± 0.099 vs 0.97 ± 0.018",–,–,–,–
B2,–,–,–,–,–,–,–,"increases, 0.54 ± 0.05 vs 0.89 ± 0.01","increases, 0.43 ± 0.06 vs 0.65 ± 0.03","increases, 0.63 ± 0.02 vs 1.00 ± 0.03","increases, 0.83 ± 0.03 vs 1.00 ± 0.03"
B3,"abolishes, 0.99 ± 0.02 vs 1.13 ± 0.01",–,no change,–,no change,"increases, 0.46 ± 0.04 vs 0.92 ± 0.01","increases, 0.71 ± 0.064 vs 0.97 ± 0.018",–,–,–,–
B4,–,–,–,–,no change,–,–,–,–,–,–
